{"source": "patent US10704056B2", "about": "“Constitutively active ABA receptor mutants” (The Regents of the University of California, priority 2011, dated 2020)", "molecules": {"B1": {"name": "PYL6: wild-type ABA receptor PYL6 (SEQ ID NO:7) (protein, listed as Arabidopsis thaliana)", "chain": "MPTSIQFQRSSTAAEAANATVRNYPHHHQKQVQKVSLTRGMADVPEHVELSHTHVVGPSQCFSVVVQDVEAPVSTVWSILSRFEHPQAYKHFVKSCHVVIGDGREVGSVREVRVVSGLPAAFSLERLEIMDDDRHVISFSVVGGDHRLMNYKSVTTVHESEEDSDGKKRTRVVESYVVDVPAGNDKEETCSFADTIVRCNLQSLAKLAENTSKFS", "modifications": "thale cress PYR/PYL receptor, abscisic acid receptor PYL6, PYR1-like protein 6 (PYL6), ABI1-binding protein 5 (ABIP5), regulatory components of ABA receptor 9 (RCAR9), Bet v I allergen family protein, At2g40330, T7M7.15"}, "B2": {"name": "PYL10: wild-type ABA receptor PYL10 (SEQ ID NO:11) (protein, listed as Arabidopsis thaliana)", "chain": "MNGDETKKVESEYIKKHHRHELVESQCSSTLVKHIKAPLHLVWSIVRRFDEPQKYKPFISRCVVQGKKLEVGSVREVDLKSGLPATKSTEVLEILDDNEHILGIRIVGGDHRLKNYSSTISLHSETIDGKTGTLAIESFVVDVPEGNTKEETCFFVEALIQCNLNSLADVTERLQAESMEKKI", "modifications": "thale cress PYR/PYL receptor, abscisic acid receptor PYL10, PYR1-like protein 10 (PYL10), ABI1-binding protein 8 (ABIP8), regulatory components of ABA receptor 4 (RCAR4), At4g27920, T13J8.30"}, "B3": {"name": "PYR1^CA4B: PYR1 quadruple mutant (V83F, M158I, F159V, K170W) (protein)", "chain": "HHHHHHMPSELTPEERSELKNSIAEFHTYQLDPGSCSSLHAQRIHAPPELVWSIVRRFDKPQTYKHFIKSCSVEQNFEMRVGCTRDVIFISGLPANTSTERLDILDDERRVTGFSIIGGEHRLTNYKSVTTVHRFEKENRIWTVVLESYVVDMPEGNSEDDTRIVADTVVKLNLQWLATVAEAMARNSGDGSGSQVT"}, "B4": {"name": "PYR1^CAc: PYR1 quadruple mutant (H60P, A89W, M158I, F159V) (protein)", "chain": "B3 chain with H66P, F89V, A95W, W176K"}, "B5": {"name": "PYL2^CA4C: PYL2 mutant (H65P, A93W, M1641, F165V) (protein)", "chain": "HHHHHHMSSSPAVKGLTDEEQKTLEPVIKTYHQFEPDPTTCTSLITQRIHAPASVVWPLIRRFDNPERYKPFVKRCRLISGDGDVGSVREVTVISGLPWSTSTERLEFVDDDHRVLSFRVVGGEHRLKNYKSVTSVNEFLNQDSGKVYTVVLESYTVDIPEGNTEEDTKIVVDTVVKLNLQKLGVAATSAPMHDDE"}, "B6": {"name": "PYL9^CA4C: PYL9 mutant (A91W, Y160I, F161V) (protein)", "chain": "HHHHHHMMDGVEGGTAMYGGLETVQYVRTHHQHLCRENQCTSALVKHIKAPLHLVWSLVRRFDQPQKYKPFVSRCTVIGDPEIGSLREVNVKSGLPWTTSTERLELLDDEEHILGIKIIGGDHRLKNYSSILTVHPEIIEGRAGTMVIESFVVDVPQGNTKDETCIVVEALIRCNLKSLADVSERLASQDITQ"}, "B7": {"name": "K170W: PYR1 receptor mutant with amino acid substitution K170W (protein)", "chain": "MPSELTPEERSELKNSIAEFHTYQLDPGSCSSLHAQRIHAPPELVWSIVRRFDKPQTYKHFIKSCSVEQNFEMRVGCTRDVIVISGLPANTSTERLDILDDERRVTGFSIIGGEHRLTNYKSVTTVHRFEKENRIWTVVLESYVVDMPEGNSEDDTRMFADTVVKLNLQWLATVAEAMARNSGDGSGSQVT", "modifications": "synthetic mutated PYR/PYL receptor polypeptide PYR1 K170W"}, "B8": {"name": "H60P: PYR1 (SEQ ID NO:1) receptor mutant with amino acid substitution H60P (protein, listed as Arabidopsis thaliana)", "chain": "B7 chain with H60P, W170K", "modifications": "thale cress PYR/PYL receptor, Pyrabactin resistance 1, abscisic acid receptor PYR1 (PYR1), ABI1-binding protein 6 (ABIP6), regulatory components of ABA receptor 11 (RCAR11), At4g17870, T6K21.50"}, "B9": {"name": "V83F: PYR1 receptor mutant with amino acid substitution V83F (protein)", "chain": "B7 chain with V83F, W170K", "modifications": "synthetic mutated PYR/PYL receptor polypeptide PYR1 V83F"}, "B10": {"name": "I84Q: PYR1 receptor mutant with amino acid substitution I84Q (protein)", "chain": "B7 chain with I84Q, W170K", "modifications": "synthetic mutated PYR/PYL receptor polypeptide PYR1 I84Q"}, "B11": {"name": "A89W: PYR1 receptor mutant with amino acid substitution A89W (protein)", "chain": "B7 chain with A89W, W170K", "modifications": "synthetic mutated PYR/PYL receptor polypeptide PYR1 A89W"}, "B12": {"name": "M158I: PYR1 receptor mutant with amino acid substitution M158I (protein)", "chain": "B7 chain with M158I, W170K", "modifications": "synthetic mutated PYR/PYL receptor polypeptide PYR1 M158I"}, "B13": {"name": "F159V: PYR1 receptor mutant with amino acid substitution F159V (protein)", "chain": "B7 chain with F159V, W170K", "modifications": "synthetic mutated PYR/PYL receptor polypeptide PYR1 F159V"}, "B14": {"name": "T162F: PYR1 receptor mutant with amino acid substitution T162F (protein)", "chain": "B7 chain with T162F, W170K", "modifications": "synthetic mutated PYR/PYL receptor polypeptide PYR1 T162F"}}, "note": "Substitutions are numbered along the chain they refer to. Names and notes keep the numbering of the source."}
{"system": "HAB1", "test": "In vitro PP2C phosphatase (pNPP) receptor activation assay with HAB1", "type": "biochemical, Arabidopsis", "conditions": "600 nM GST-HAB1, 0-4800 nM receptor, no ABA", "method": "Recombinant receptor proteins were produced as follows: Coding sequences were cloned into pET28 yielding 6×HIS (SEQ ID NO:173) fusions proteins and transformed into E. coli expression strain BL21. […]. Cells were stored at −80° C. before purification. After thawing, cells were sonicated on ice five times for 30 sec with 30 sec resting intervals. A cleared lysate was obtained after centrifugation at 12,000×g for 10 min and applied to 1 ml of Ni-NTA column (Qiagen) and washed with 20 column volumes of Buffer A containing 30 mM imidazole. Bound protein was eluted with 10 ml of Buffer A with 250 mM imidazole. The elutate was dialyzed against TBS. The purified recombinant proteins were then used together with recombinant phosphatases in receptor assays. In these assays, receptor activity is indicated by inhibition of phosphatase activity, as inferred from initial reaction velocities for GST-HAB1 mediated hydrolysis of the synthetic phosphatase substrate pNPP. Reactions contained 600 nM GST-HAB1 and either 0, 600, 1200, 2400 or 4800 nM 6×His-PYR1 or variants in a reaction buffer consisting of 33 mM Tris-OAc, pH 7.9, 66 mM KOAc, 0.1% BSA, 25 mM Mn(OAc)2, 50 mM pNPP. To infer the level of receptor activation with respect to fully activated wild type receptor, control reactions were also conducted using saturating levels of (+)-ABA (10 μM), and 600 nM wild type PYR1 and HAB1. Immediately after mixing proteins and substrates, reactions were monitored for hydrolysis of pNPP at A405 at ˜10 second intervals over 20 minutes using a Wallac plate reader. Reaction progressions were plotted, initial velocities calculated and converted to specific activities using a standard curve for 4-nitrophenol made in the same buffer system volumes/plate reader used for enzymatic reaction measurements. The values shown are expressed as %-control phosphatase activity levels as measured in the absence of receptor protein. The average specific activity level of GST-HAB1 utilized in our experiments was 4000 μmol/min/mg, when assayed on the phosphatase substrate pNPP in the absence of PYR1 or other receptors, as described using the methods above.\nFull length ABI1 and ABI2 were cloned into a modified pSUMO vector (LifeSensors Inc, USA) vector yielding 6×His-SUMO fusion proteins; GST-HAB1 was expressed and purified as previously described (Park et al., 2009). Mutant receptors were cloned into pET28 yielding 6×His-fusion proteins. […]. The cultures were pre-incubated 2 hours at 30° C. and, for PP2C expression, media was supplemented with 4 mM MnCl2 one hour after inoculation. After pre-incubation, IPTG was added (1 mM) and cells were induced at 15° C. for 16 hours, after which they were collected by centrifugation, resuspended in 5 ml Buffer A (50 mM NaH2PO4, 300 mM NaCl) +10 mM imidazole, pH 8.0 and stored at −80° C. For purification, cells were thawed, sonicated on ice (60 seconds) and a cleared lysate was then applied a 1 ml-bed volume column of Ni-NTA (Qiagen, USA), washed with 20 column volumes of Buffer A+30 mM imidazole and bound protein eluted with 1 ml of Buffer A+250 mM imidazole. For receptors, the elutate was dialyzed against TBS and for PP2Cs, fusion proteins were desalted by passage over a Sephadex G50 column.\nThe purified receptors and phosphatases were then used in receptor assays where receptor activation is indicated by inhibition of phosphatase activity, as inferred from initial reaction velocities for PP2C-mediated hydrolysis of the synthetic phosphatase substrate pNPP in reactions containing 600 nM PP2C and either 0, 600, 1200, 2400 or 4800 nM receptor. The receptor assay buffer consisted of 33 mM Tris-OAc, pH 7.9, 66 mM KOAc, 0.1% BSA, 25 mM Mn(OAc)2, 0.1%13-ME and 50 mM pNPP. Immediately after mixing proteins and substrates, reactions were monitored for hydrolysis of pNPP at A405 at ˜2 minutes intervals using a Wallac plate reader. […]"}
{"molecule": "B1", "basal receptor activity (inhibition of HAB1 phosphatase activity in the absence of ABA)": "are not full CA receptors"}
{"molecule": "B2", "basal receptor activity (inhibition of HAB1 phosphatase activity in the absence of ABA)": "are not full CA receptors"}
{"molecule": "B3", "basal receptor activity (inhibition of HAB1 phosphatase activity in the absence of ABA)": "dramatically increased basal PYR1 activity"}
{"molecule": "B4", "basal receptor activity (inhibition of HAB1 phosphatase activity in the absence of ABA)": "dramatically increased basal PYR1 activity"}
{"molecule": "B5", "basal receptor activity (inhibition of HAB1 phosphatase activity in the absence of ABA)": "highly activated in the absence of ABA"}
{"molecule": "B6", "basal receptor activity (inhibition of HAB1 phosphatase activity in the absence of ABA)": "highly activated in the absence of ABA"}
{"molecule": "B7", "basal receptor activity (inhibition of HAB1 phosphatase activity in the absence of ABA)": "increase basal activity of receptors"}
{"molecule": "B8", "basal receptor activity (inhibition of HAB1 phosphatase activity in the absence of ABA)": "increase basal activity of receptors"}
{"molecule": "B9", "basal receptor activity (inhibition of HAB1 phosphatase activity in the absence of ABA)": "increase basal activity of receptors"}
{"molecule": "B10", "basal receptor activity (inhibition of HAB1 phosphatase activity in the absence of ABA)": "increase basal activity of receptors"}
{"molecule": "B11", "basal receptor activity (inhibition of HAB1 phosphatase activity in the absence of ABA)": "increase basal activity of receptors"}
{"molecule": "B12", "basal receptor activity (inhibition of HAB1 phosphatase activity in the absence of ABA)": "increase basal activity of receptors"}
{"molecule": "B13", "basal receptor activity (inhibition of HAB1 phosphatase activity in the absence of ABA)": "increase basal activity of receptors"}
{"molecule": "B14", "basal receptor activity (inhibition of HAB1 phosphatase activity in the absence of ABA)": "increase basal activity of receptors"}
